Assay results as given in paper PMC6212398 (Nature Communications, 2018).

What was measured:
Assay in all cases: ITC; peptide (1 mM) titrated into a cell with Hsp27 proteins (100 µM); SEC buffer (50 mM sodium phosphate, 100 mM NaCl); 25 °C; one-site binding model
Details in all cases: both partners purified
[1] = target: T1, Hsp27 alpha-crystallin domain (ACD, residues Q80–S176) (human, UniProt P04792 80-176)
T1 construct: Human Hsp27 (HSPB1), alpha-crystallin domain, residues Q80–S176; Used 15N-labelled (observed in HSQC) and unlabelled; Vector was a gift of the Klevit laboratory; also called Hsp27 ACD
T1 sequence (P04792 80-176): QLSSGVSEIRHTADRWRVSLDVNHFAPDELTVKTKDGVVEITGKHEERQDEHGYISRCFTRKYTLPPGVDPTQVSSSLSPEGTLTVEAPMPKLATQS

[2] = target: T2, Hsp27 3D (pseudo-phosphorylation mutant S15D, S78D, S82D) (human, UniProt P04792 1-205, S15 replaced with aspartate | S78 replaced with aspartate | S82 replaced with …)
T2 construct: Human Hsp27 (HSPB1) in which three serines (S15, S78 and S82) are replaced with aspartate; Vector was a gift of the Dickey laboratory; Compared throughout with the full-length wild type, so probably the whole protein
T2 sequence (P04792 whole entry S15D/S78D/S82D): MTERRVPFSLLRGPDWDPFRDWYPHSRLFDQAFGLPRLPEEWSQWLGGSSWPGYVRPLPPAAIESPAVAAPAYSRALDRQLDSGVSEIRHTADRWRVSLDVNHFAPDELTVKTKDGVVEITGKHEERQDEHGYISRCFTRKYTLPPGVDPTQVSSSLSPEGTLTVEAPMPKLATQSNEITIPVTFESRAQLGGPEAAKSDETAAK

[3] = target: T3, Hsp27 ΔNTD (residues 80–205) (human, UniProt P04792 80-205)
T3 construct: Human Hsp27 (HSPB1) without the N-terminal domain, residues 80–205; Heterogeneous mixture of 3–5 mers; source: E. coli BL21 (DE3), purified (Ni-NTA, size exclusion)
T3 sequence (P04792 80-205, stated change not applied): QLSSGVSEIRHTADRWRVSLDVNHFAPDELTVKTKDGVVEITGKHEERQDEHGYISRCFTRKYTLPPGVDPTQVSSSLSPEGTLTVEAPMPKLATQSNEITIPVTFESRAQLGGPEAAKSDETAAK

| Binder | Kd [1] [µM] | Kd [2] [µM] | Kd [3] [µM] |
| --- | --- | --- | --- |
| EITIPATHE (EITIPATHE. The paper numbers the peptide from E176, so printed Val181 (V of IPV) is UniProt V183. Peptide termini chemistry is not stated.) [Hsp27 IPV H peptide with Val181 mutated to alanine] | > 25 |  |  |
| EITAPVTHE (EITAPVTHE. The paper numbers the peptide from E176, so printed Ile179 (I of IPV) is UniProt I181. Peptide termini chemistry is not stated.) [Hsp27 IPV H peptide with Ile179 mutated to alanine] | > 25 |  |  |
| EITIPVTFE (Human Hsp27 (HSPB1), C-terminal IPV (IXI) motif, 9-mer; source: synthetic peptide, bought: Genescript) [Hsp27 IPV peptide (native 9-mer EITIPVTFE)] | > 25 |  |  |

These reach a lower Kd [1]. Values come first.

| Kd [1] [µM] | Kd [2] [µM] | Kd [3] [µM] | Binder |
| --- | --- | --- | --- |
| ~5 |  |  | EITIAVTHE (Human Hsp27 (HSPB1) IPV peptide in the His-containing context with the proline of IPV mutated to alanine; source: synthetic peptide, bought: Genescript) [Hsp27 IPV H peptide with the second X residue (Pro) of IXIXV mutated to alanine (EITIAVTHE)] |
| 11.5 | > 50 | 11.4 | EITIPVTHE (Human Hsp27 (HSPB1) IPV 9-mer with the penultimate phenylalanine swapped for histidine (the residue at this position in the motif of BAG3); also called His-containing IPV peptide; chimeric peptide; source: synthetic peptide, bought: Genescript) [Hsp27 IPV H peptide (EITIPVTHE)] |
